Results from patent US20130011380A1.
Several values for one entry are separate records, joined by “and”; a condition that tells them apart may be missing. Equal entries are not always repeated.

Assays:
Test in all cases: anti-Flag IP-MS, mES nuclear extract
Mtap1b (mouse) = Mtap1b (mouse) (UniProt P14873)
Psmc2 (mouse) = Psmc2 (mouse) (UniProt P46471)
Wapal (mouse) = Wapal (mouse) (UniProt Q65Z40)
Prpf4b (mouse) = Prpf4b (mouse) (UniProt Q61136)
Lmo7 (mouse) = Lmo7 (mouse) (UniProt E9PYF4)
Ywhae (mouse) = Ywhae (mouse) (UniProt P62259)
Sequence of Ywhae (mouse) (P62259 whole entry): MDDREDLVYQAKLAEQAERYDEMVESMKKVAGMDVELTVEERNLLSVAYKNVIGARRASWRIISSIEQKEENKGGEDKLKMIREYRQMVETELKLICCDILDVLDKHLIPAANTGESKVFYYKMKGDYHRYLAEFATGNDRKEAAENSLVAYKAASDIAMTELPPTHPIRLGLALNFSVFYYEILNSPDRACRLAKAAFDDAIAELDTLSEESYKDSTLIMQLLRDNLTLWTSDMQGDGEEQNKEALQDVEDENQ

Racgap1 (mouse) = Racgap1 (mouse) (UniProt Q9WVM1)
Sequence of Racgap1 (mouse) (Q9WVM1 whole entry): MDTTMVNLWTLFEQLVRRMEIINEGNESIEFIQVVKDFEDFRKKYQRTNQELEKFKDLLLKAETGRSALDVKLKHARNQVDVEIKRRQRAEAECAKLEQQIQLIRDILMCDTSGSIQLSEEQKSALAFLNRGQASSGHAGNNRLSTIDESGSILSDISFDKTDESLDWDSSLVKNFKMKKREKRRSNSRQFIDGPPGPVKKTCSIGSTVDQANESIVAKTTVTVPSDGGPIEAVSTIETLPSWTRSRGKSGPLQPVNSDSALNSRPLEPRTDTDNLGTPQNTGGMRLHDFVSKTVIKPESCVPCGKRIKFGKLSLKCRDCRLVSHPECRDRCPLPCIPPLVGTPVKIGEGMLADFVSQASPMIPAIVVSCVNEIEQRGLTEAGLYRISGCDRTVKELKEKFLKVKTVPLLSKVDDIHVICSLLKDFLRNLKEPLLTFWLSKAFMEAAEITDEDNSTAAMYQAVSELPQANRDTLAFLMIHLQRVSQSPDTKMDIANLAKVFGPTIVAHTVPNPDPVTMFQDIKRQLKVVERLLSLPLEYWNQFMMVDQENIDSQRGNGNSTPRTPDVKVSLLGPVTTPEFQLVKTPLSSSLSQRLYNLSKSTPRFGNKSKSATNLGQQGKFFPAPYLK

Ywhaz (mouse) = Ywhaz (mouse) (UniProt P63101)
Sequence of Ywhaz (mouse) (P63101 whole entry): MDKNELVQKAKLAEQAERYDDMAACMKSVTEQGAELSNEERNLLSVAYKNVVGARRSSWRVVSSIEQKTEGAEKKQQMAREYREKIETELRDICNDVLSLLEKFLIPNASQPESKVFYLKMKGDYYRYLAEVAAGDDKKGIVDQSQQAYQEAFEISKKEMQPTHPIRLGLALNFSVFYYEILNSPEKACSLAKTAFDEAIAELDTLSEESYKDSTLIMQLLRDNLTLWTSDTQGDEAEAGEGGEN

Canx (mouse) = Canx (mouse) (UniProt P35564)
Nsd1 (mouse) = Nsd1 (mouse) (UniProt O88491)
Ncapg (mouse) = Ncapg (mouse) (UniProt E9PWG6)
Cbx5 (mouse) = Cbx5 (mouse) (UniProt Q61686)
Sequence of Cbx5 (mouse) (Q61686 whole entry): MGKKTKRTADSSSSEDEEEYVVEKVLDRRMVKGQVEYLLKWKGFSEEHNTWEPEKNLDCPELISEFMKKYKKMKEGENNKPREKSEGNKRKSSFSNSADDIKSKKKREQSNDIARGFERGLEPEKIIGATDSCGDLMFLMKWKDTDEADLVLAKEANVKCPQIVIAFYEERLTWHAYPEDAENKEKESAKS

Atxn2l (mouse) = Atxn2l (mouse) (UniProt Q7TQH0)
Tip2 (mouse) = target: Tip2 (mouse)
Tmpo (mouse) = target: Tmpo (mouse)
Supt5h (mouse) = Supt5h (mouse) (UniProt O55201)
Akr1b3 (mouse) = Akr1b3 (mouse) (UniProt P45376)
Zfp655 (mouse) = Zfp655 (mouse) (UniProt Q9CZP3)
Sequence of Zfp655 (mouse) (Q9CZP3 whole entry): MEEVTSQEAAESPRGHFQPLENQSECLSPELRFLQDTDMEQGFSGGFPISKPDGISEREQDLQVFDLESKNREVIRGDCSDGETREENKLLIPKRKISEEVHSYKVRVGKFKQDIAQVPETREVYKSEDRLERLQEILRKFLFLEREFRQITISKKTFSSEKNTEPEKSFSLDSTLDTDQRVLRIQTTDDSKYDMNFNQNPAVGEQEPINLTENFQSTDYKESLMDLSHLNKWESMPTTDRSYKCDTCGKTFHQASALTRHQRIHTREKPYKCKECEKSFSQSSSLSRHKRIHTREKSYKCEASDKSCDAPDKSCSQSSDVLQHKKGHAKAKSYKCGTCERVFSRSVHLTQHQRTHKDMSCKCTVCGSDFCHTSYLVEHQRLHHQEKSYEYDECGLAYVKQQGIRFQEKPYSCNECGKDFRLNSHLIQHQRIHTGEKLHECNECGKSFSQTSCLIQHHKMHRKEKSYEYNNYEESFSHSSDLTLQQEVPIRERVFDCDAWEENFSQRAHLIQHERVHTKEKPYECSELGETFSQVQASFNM

Ogt (mouse) = Ogt (mouse) (UniProt Q8CGY8)
Dnmt3l (mouse) = Dnmt3l (mouse) (UniProt Q9CWR8)
Sequence of Dnmt3l (mouse) (Q9CWR8 whole entry): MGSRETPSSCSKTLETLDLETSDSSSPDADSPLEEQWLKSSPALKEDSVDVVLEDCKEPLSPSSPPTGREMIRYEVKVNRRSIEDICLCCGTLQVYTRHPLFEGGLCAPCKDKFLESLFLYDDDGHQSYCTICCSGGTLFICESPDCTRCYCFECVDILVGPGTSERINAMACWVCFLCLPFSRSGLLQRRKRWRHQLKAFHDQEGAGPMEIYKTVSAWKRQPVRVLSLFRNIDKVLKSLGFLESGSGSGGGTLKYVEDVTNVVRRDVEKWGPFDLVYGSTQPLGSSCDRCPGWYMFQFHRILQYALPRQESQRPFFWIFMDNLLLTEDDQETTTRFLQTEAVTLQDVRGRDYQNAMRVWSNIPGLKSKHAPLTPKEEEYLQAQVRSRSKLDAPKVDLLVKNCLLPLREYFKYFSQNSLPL

Ctbp2 (mouse) = Ctbp2 (mouse) (UniProt P56546)
Prpf4 (mouse) = Prpf4 (mouse) (UniProt Q9DAW6)
Chd4 (mouse) = Chd4 (mouse) (UniProt Q6PDQ2)
Sequence of Chd4 (mouse) (Q6PDQ2 whole entry): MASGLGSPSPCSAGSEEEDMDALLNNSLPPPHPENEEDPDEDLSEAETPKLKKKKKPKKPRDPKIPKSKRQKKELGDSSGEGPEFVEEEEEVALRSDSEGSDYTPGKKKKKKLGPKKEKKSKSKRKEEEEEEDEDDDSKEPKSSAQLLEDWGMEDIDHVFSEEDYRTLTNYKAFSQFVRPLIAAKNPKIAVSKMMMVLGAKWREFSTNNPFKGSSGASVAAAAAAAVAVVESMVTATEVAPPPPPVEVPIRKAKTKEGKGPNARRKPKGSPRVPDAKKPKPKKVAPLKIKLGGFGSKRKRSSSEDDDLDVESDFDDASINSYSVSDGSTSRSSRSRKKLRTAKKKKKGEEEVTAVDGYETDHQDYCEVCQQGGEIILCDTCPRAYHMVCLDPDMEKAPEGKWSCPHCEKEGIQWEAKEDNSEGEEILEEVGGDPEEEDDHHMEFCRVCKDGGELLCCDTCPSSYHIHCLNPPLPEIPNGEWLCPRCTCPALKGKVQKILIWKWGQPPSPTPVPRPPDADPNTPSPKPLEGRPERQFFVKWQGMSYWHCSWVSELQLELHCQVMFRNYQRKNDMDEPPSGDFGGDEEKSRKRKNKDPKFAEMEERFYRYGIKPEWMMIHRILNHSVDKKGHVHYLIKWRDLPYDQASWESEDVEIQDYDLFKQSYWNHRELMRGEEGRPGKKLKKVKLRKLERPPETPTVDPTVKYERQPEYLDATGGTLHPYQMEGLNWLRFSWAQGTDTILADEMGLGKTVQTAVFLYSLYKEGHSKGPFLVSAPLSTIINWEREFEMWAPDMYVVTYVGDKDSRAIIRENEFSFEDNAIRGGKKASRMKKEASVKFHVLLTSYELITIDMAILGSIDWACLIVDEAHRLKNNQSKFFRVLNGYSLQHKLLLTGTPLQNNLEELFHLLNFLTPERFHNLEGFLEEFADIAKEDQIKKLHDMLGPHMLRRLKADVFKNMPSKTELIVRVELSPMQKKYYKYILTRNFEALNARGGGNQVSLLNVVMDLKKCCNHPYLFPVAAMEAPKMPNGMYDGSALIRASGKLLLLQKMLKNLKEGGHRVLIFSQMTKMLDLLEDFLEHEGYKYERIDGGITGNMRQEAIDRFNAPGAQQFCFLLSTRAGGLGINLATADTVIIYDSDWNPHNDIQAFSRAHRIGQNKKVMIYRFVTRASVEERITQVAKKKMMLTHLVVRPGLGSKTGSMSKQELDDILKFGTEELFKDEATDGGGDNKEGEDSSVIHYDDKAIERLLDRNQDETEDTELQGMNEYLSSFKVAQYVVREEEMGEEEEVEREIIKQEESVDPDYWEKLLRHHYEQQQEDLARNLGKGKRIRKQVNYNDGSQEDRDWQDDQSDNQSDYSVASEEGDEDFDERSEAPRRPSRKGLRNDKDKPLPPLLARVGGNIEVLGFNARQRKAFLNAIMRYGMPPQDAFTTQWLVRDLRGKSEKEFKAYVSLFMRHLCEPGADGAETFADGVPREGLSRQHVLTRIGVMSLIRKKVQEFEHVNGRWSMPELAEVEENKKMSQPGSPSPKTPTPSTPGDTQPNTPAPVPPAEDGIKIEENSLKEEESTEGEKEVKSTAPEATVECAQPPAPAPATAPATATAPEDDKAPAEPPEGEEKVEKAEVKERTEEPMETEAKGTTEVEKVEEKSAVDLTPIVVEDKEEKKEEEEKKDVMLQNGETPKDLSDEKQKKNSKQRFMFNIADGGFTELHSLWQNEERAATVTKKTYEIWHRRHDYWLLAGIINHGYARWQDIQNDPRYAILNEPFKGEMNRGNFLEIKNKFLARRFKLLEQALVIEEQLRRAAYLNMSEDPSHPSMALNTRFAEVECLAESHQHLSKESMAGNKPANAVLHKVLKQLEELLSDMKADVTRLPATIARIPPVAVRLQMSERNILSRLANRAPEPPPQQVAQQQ

Tufm (mouse) = Tufm (mouse) (UniProt Q8BFR5)
Hdlbp (mouse) = Hdlbp (mouse) (UniProt Q8VDJ3)
Dnaja2 (mouse) = Dnaja2 (mouse) (UniProt Q9QYJ0)
Smpd4 (mouse) = Smpd4 (mouse) (UniProt Q6ZPR5)
Sequence of Smpd4 (mouse) (Q6ZPR5 whole entry): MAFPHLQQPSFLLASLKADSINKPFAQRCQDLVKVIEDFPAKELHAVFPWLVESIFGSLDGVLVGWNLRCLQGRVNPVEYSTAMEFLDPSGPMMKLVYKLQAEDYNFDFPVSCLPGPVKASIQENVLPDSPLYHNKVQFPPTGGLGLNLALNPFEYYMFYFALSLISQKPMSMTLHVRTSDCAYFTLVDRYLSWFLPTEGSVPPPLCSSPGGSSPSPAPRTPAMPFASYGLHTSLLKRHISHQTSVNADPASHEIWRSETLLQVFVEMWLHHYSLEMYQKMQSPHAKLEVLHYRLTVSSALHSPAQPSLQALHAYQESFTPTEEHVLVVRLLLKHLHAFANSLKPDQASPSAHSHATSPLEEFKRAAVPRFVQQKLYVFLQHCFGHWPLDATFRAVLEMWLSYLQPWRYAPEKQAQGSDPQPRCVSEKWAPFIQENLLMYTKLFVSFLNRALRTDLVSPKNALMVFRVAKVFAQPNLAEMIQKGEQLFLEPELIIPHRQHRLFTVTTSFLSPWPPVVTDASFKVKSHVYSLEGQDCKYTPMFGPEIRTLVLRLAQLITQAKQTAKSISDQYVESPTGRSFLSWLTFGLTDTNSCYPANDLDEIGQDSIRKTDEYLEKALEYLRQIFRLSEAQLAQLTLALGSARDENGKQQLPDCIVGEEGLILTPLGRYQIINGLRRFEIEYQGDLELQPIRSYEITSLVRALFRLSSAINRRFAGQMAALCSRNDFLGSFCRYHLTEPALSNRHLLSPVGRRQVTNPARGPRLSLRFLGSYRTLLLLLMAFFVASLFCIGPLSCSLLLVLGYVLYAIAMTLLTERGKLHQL

Zfp281 (mouse) = Zfp281 (mouse) (UniProt Q99LI5)
Peg10 (mouse) = Peg10 (mouse) (UniProt Q7TN75)
Lmna (mouse) = Lmna (mouse) (UniProt P48678)
Cct7 (mouse) = Cct7 (mouse) (UniProt P80313)
Kif23 (mouse) = Kif23 (mouse) (UniProt E9Q5G3)

2x Flag tag only (control) (peptide)
Nucleus peptide (Mtap1b (mouse)): 0 peptides | Nucleus spectra (Mtap1b (mouse)): 0 spectra | Nucleus peptide (Psmc2 (mouse)): 1 peptides | Nucleus spectra (Psmc2 (mouse)): 1 spectra | Nucleus peptide (Wapal (mouse)): 0 peptides | Nucleus spectra (Wapal (mouse)): 0 spectra | Nucleus peptide (Prpf4b (mouse)): 0 peptides | Nucleus spectra (Prpf4b (mouse)): 0 spectra | Nucleus peptide (Lmo7 (mouse)): 0 peptides | Nucleus spectra (Lmo7 (mouse)): 0 spectra | Nucleus peptide (Ywhae (mouse)): 1 peptides | Nucleus spectra (Ywhae (mouse)): 1 spectra | Nucleus peptide (Racgap1 (mouse)): 3 peptides | Nucleus spectra (Racgap1 (mouse)): 3 spectra | Nucleus peptide (Ywhaz (mouse)): 1 peptides | Nucleus spectra (Ywhaz (mouse)): 6 spectra | Nucleus peptide (Canx (mouse)): 2 peptides | Nucleus spectra (Canx (mouse)): 2 spectra | Nucleus peptide (Nsd1 (mouse)): 1 peptides | Nucleus spectra (Nsd1 (mouse)): 2 spectra | Nucleus peptide (Ncapg (mouse)): 0 peptides | Nucleus spectra (Ncapg (mouse)): 0 spectra | Nucleus peptide (Cbx5 (mouse)): 2 peptides | Nucleus spectra (Cbx5 (mouse)): 3 spectra | Nucleus peptide (Atxn2l (mouse)): 2 peptides | Nucleus spectra (Atxn2l (mouse)): 3 spectra | Nucleus peptide (Tip2 (mouse)): 6 peptides | Nucleus spectra (Tip2 (mouse)): 14 spectra | Nucleus peptide (Tmpo (mouse)): 2 peptides | Nucleus spectra (Tmpo (mouse)): 6 spectra | Nucleus peptide (Supt5h (mouse)): 1 peptides | Nucleus spectra (Supt5h (mouse)): 1 spectra | Nucleus peptide (Akr1b3 (mouse)): 2 peptides | Nucleus spectra (Akr1b3 (mouse)): 2 spectra | Nucleus peptide (Zfp655 (mouse)): 0 peptides | Nucleus spectra (Zfp655 (mouse)): 0 spectra | Nucleus peptide (Ogt (mouse)): 0 peptides | Nucleus spectra (Ogt (mouse)): 0 spectra | Nucleus peptide (Dnmt3l (mouse)): 2 peptides | Nucleus spectra (Dnmt3l (mouse)): 4 spectra | Nucleus peptide (Ctbp2 (mouse)): 2 peptides | Nucleus spectra (Ctbp2 (mouse)): 4 spectra | Nucleus peptide (Prpf4 (mouse)): 2 peptides | Nucleus spectra (Prpf4 (mouse)): 2 spectra | Nucleus peptide (Chd4 (mouse)): 4 peptides | Nucleus spectra (Chd4 (mouse)): 6 spectra | Nucleus peptide (Tufm (mouse)): 6 peptides | Nucleus spectra (Tufm (mouse)): 11 spectra | Nucleus peptide (Hdlbp (mouse)): 1 peptides | Nucleus spectra (Hdlbp (mouse)): 1 spectra | Nucleus peptide (Dnaja2 (mouse)): 1 peptides | Nucleus spectra (Dnaja2 (mouse)): 2 spectra | Nucleus peptide (Smpd4 (mouse)): 4 peptides | Nucleus spectra (Smpd4 (mouse)): 8 spectra | Nucleus peptide (Zfp281 (mouse)): 3 peptides | Nucleus spectra (Zfp281 (mouse)): 5 spectra | Nucleus peptide (Peg10 (mouse)): 2 peptides | Nucleus spectra (Peg10 (mouse)): 2 spectra | Nucleus peptide (Lmna (mouse)): 1 peptides | Nucleus spectra (Lmna (mouse)): 3 spectra | Nucleus peptide (Cct7 (mouse)): 0 peptides | Nucleus spectra (Cct7 (mouse)): 0 spectra

human AID containing two tandem Flag tags (Flag-human AID) (from UniProt Q9GZX7 1-198) (enzyme)
Nucleus peptide (Mtap1b (mouse)): 11 peptides | Nucleus spectra (Mtap1b (mouse)): 24 spectra | Nucleus peptide (Psmc2 (mouse)): 3 peptides | Nucleus spectra (Psmc2 (mouse)): 7 spectra | Nucleus peptide (Wapal (mouse)): 18 peptides | Nucleus spectra (Wapal (mouse)): 41 spectra | Nucleus peptide (Prpf4b (mouse)): 3 peptides | Nucleus spectra (Prpf4b (mouse)): 7 spectra | Nucleus peptide (Ywhae (mouse)): 3 peptides | Nucleus spectra (Ywhae (mouse)): 6 spectra | Nucleus peptide (Racgap1 (mouse)): 6 peptides | Nucleus spectra (Racgap1 (mouse)): 7 spectra | Nucleus peptide (Ywhaz (mouse)): 6 peptides | Nucleus spectra (Ywhaz (mouse)): 17 spectra | Nucleus peptide (Canx (mouse)): 7 peptides | Nucleus spectra (Canx (mouse)): 23 spectra | Nucleus peptide (Nsd1 (mouse)): 4 peptides | Nucleus spectra (Nsd1 (mouse)): 5 spectra | Nucleus peptide (Ncapg (mouse)): 4 peptides | Nucleus spectra (Ncapg (mouse)): 9 spectra | Nucleus peptide (Cbx5 (mouse)): 4 peptides | Nucleus spectra (Cbx5 (mouse)): 12 spectra | Nucleus peptide (Atxn2l (mouse)): 4 peptides | Nucleus spectra (Atxn2l (mouse)): 9 spectra | Nucleus peptide (Supt5h (mouse)): 6 peptides | Nucleus spectra (Supt5h (mouse)): 11 spectra | Nucleus peptide (Akr1b3 (mouse)): 4 peptides | Nucleus spectra (Akr1b3 (mouse)): 11 spectra | Nucleus peptide (Zfp655 (mouse)): 4 peptides | Nucleus spectra (Zfp655 (mouse)): 9 spectra | Nucleus peptide (Ogt (mouse)): 7 peptides | Nucleus spectra (Ogt (mouse)): 12 spectra | Nucleus peptide (Dnmt3l (mouse)): 4 peptides | Nucleus spectra (Dnmt3l (mouse)): 10 spectra | Nucleus peptide (Kif23 (mouse)): 4 peptides and 7 peptides | Nucleus spectra (Kif23 (mouse)): 11 spectra and 18 spectra | Nucleus peptide (Ctbp2 (mouse)): 4 peptides | Nucleus spectra (Ctbp2 (mouse)): 9 spectra | Nucleus peptide (Prpf4 (mouse)): 4 peptides | Nucleus spectra (Prpf4 (mouse)): 5 spectra | Nucleus peptide (Chd4 (mouse)): 15 peptides | Nucleus spectra (Chd4 (mouse)): 26 spectra | Nucleus peptide (Tufm (mouse)): 9 peptides | Nucleus spectra (Tufm (mouse)): 25 spectra | Nucleus peptide (Hdlbp (mouse)): 3 peptides | Nucleus spectra (Hdlbp (mouse)): 5 spectra | Nucleus peptide (Dnaja2 (mouse)): 12 peptides | Nucleus spectra (Dnaja2 (mouse)): 43 spectra | Nucleus peptide (Smpd4 (mouse)): 9 peptides | Nucleus spectra (Smpd4 (mouse)): 17 spectra | Nucleus peptide (Zfp281 (mouse)): 14 peptides | Nucleus spectra (Zfp281 (mouse)): 49 spectra | Nucleus peptide (Peg10 (mouse)): 3 peptides | Nucleus spectra (Peg10 (mouse)): 5 spectra | Nucleus peptide (Lmna (mouse)): 6 peptides | Nucleus spectra (Lmna (mouse)): 13 spectra | Nucleus peptide (Cct7 (mouse)): 3 peptides | Nucleus spectra (Cct7 (mouse)): 5 spectra
